# The Immune Epitope Database (IEDB)
# Columns and labels:
# Assay in all cases: IEDB peptide-MHC binding, purified MHC/competitive/radioactivity; ≥ and ≤ were set here for values at or beyond the usual limits of such assays
# Conditions in all cases: source organism: Bordetella pertussis
# [1] = target: HLA-B*44:03
# [2] = target: HLA-B*07:02
# [3] = target: HLA-B*53:01
# [4] = target: HLA-B*57:01
Sequence,IC50 [2] [µM],IC50 [3] [µM],also measured
AQGKALLYR,,,IC50 [1]: ≥ 70.1 µM
GATRAVDSL,69.6,,
MHTIASILL,,7.4,
PASANTLLL,15.7,,
RASASRARI,,,IC50 [4]: ≥ 70400 nM
RVAPPAVAL,0.349,,
SGEGRVNIG,,3.18,
VVETAQPLP,,69.9,
WTFHAGYRY,,,IC50 [4]: 1400 nM
